This is an account of results in publication PMC5551713 (The Journal of Cell Biology, 2017).

Holding throughout (assay): negative-stain TEM
Data set [1] addresses PFKL-H199Y, point mutant at the sugar substrate binding site (human) (UniProt P17858).
Data set [2] has as its target muscle PFK1 (PFKM), phosphofructokinase-1, 780-amino-acid isoform 2 (human) (UniProt P08237).
For data set [3], the target named is platelet PFK1 (PFKP), phosphofructokinase-1 (human) (UniProt Q01813).
Data set [4] deals with the molecule itself.

With “PFKL-H199Y, point mutant at the sugar substrate binding site (from UniProt P17858-1 1-780) (enzyme)”, the stoichiometry N in data set [1] was 4. Regarding “muscle PFK1 (PFKM), phosphofructokinase-1, 780-amino-acid isoform 2 (from UniProt P08237-1 1-780) (enzyme)”, in data set [2], the stoichiometry N is 4.

In data set [3], “platelet PFK1 (PFKP), phosphofructokinase-1 (from UniProt Q01813 1-784) (enzyme)” registered a stoichiometry N of 4.

B1: liver PFK1 (PFKL), phosphofructokinase-1, 780-amino-acid isoform b (enzyme, human, UniProt P17858-1 1-780, looked up)
chain: MAAVDLEKLRASGAGKAIGVLTSGGDAQGMNAAVRAVTRMGIYVGAKVFLIYEGYEGLVEGGENIKQANWLSVSNIIQLGGTIIGSARCKAFTTREGRRAAAYNLVQHGITNLCVIGGDGSLTGANIFRSEWGSLLEELVAEGKISETTARTYSHLNIAGLVGSIDNDFCGTDMTIGTDSALHRIMEVIDAITTTAQSHQRTFVLEVMGRHCGYLALVSALASGADWLFIPEAPPEDGWENFMCERLGETRSRGSRLNIIIIAEGAIDRNGKPISSSYVKDLVVQRLGFDTRVTVLGHVQRGGTPSAFDRILSSKMGMEAVMALLEATPDTPACVVTLSGNQSVRLPLMECVQMTKEVQKAMDDKRFDEATQLRGGSFENNWNIYKLLAHQKPPKEKSNFSLAILNVGAPAAGMNAAVRSAVRTGISHGHTVYVVHDGFEGLAKGQVQEVGWHDVAGWLGRGGSMLGTKRTLPKGQLESIVENIRIYGIHALLVVGGFEAYEGVLQLVEARGRYEELCIVMCVIPATISNNVPGTDFSLGSDTAVNAAMESCDRIKQSASGTKRRVFIVETMGGYCGYLATVTGIAVGADAAYVFEDPFNIHDLKVNVEHMTEKMKTDIQRGLVLRNEKCHDYYTTEFLYNLYSSEGKGVFDCRTNVLGHLQQGGAPTPFDRNYGTKLGVKAMLWLSEKLREVYRKGRVFANAPDSACVIGLKKKAVAFSPVTELKKDTDFEHRMPREQWWLSLRLMLKMLAQYRISMAAYVSGELEHVTRRTLSMDKGF
Take B1: in data set [4], the “stoichiometry N” value is 4.

For orientation: stoichiometry N means the number of molecules, sites or subunits per partner or assembly.
